# Laboratory results from publication PMC8978339 (Cancer chemotherapy and pharmacology, 2021).
# B1: SRC186 (human SRC-1 fragment, residues 595-780) (domain or fragment, UniProt Q15788 595-780, looked up)
# chain: MIQSDNSSSDGKPLDSGLLHNNDRLSDGDSKYSQTSHKLVQLLTTTAEQQLRHADIDTSCKDVLSCTGTSNSASANSSGGSCPSSHSSLTERHKILHRLLQEGSPSDITTLSVEPDKKDSASTSVSVTGQVQGNSSIKLELDASKKKESKDHQLLRYLLDKDEKDLRSTPNLSLDDVKVKVEKKEQ
# modifications: biotin (labeled with biotin reagent)
# Target: T1, his-tagged PXRLBD (residues 130-434) (human, UniProt O75469 130-434)
# T1 sequence (looked up): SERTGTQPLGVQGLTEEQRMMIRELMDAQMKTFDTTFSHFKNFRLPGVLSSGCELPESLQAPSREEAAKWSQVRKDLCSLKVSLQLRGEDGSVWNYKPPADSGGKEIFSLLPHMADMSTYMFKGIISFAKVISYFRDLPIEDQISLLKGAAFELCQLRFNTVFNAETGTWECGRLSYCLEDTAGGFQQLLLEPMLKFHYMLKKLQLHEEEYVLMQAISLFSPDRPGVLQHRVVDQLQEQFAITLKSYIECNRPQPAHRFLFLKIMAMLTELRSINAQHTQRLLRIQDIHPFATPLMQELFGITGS
# Assay: pull-down
binder,measurement,value
B1,binding result,binds
